The data set deals with T1, Mre11 (UniProt P49959 1-708).
T1 sequence: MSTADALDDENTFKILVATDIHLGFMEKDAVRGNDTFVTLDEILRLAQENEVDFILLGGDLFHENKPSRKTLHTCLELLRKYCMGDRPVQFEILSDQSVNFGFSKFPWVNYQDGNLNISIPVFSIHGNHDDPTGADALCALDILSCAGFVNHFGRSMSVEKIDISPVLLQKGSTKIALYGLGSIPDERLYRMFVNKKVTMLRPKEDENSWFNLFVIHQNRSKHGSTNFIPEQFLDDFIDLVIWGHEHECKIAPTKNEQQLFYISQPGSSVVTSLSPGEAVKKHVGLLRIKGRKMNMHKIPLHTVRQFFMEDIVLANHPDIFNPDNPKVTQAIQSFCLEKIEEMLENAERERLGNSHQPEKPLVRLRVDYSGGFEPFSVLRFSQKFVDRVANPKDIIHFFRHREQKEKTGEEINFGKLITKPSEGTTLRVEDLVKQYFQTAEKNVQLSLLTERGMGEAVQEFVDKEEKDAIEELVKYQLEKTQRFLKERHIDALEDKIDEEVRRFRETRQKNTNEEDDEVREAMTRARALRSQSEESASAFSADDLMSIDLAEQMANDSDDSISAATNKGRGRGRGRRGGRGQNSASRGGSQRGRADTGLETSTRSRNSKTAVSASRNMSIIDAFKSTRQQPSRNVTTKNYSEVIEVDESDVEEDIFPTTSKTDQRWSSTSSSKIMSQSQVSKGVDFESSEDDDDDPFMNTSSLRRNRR
The experiment in a line: EMSA; increasing Mre11; 1 mM Mg acetate; no Bcl2; EMSA: 25 mM MOPS pH 7.0, 60 mM KCl, 0.2% Tween, 2 mM DTT, 1 mM Mg(CH3COO)2, 37 C 15 min; 10 pM DNA, 10 nM Mre11; 5% native PAGE in TBE at 4 C. Particulars: protein: recombinant; tags: Flag; chain copies: 2; label: 5'-32P on TP423; 34 bp duplex (S3[1-34] with S4[1-34]); 3' overhangs 16 nt (TP423) and 15 nt (TP424). (In EMSA bound probe runs differently from free probe, usually more slowly.)

From publication PMC4333404, “Bcl2 inhibits recruitment of Mre11 complex to DNA double-strand breaks in response to high-linear energy transfer radiation” come the findings set out here.

B1: TP423/TP424 3' overhanging duplex (dsDNA)
DNA 1: CTGCAGGGTTTTTGTTCCAGTCTGTAGCACTGTGTAAGACAGGCCAGATC
DNA 2: CACAGTGCTACAGACTGGAACAAAAACCCTGCAGTACTCTACTCATCTC
On to B1, for which the binding result is “binds”.
